In the RNAGym collection of RNA variant scans (doi:10.1021/acssynbio.7b00057):

B1: Pistol ribozyme (parent)
chain: GGGUCGUUGUUCCAUAAUCGCGUGGAUAUGGCACGCAAGUUUCUACCGGGCACCGUAAAUGUCCGACUGGAGCCGUUCGGGCGGCUAUAAACAGACCUCAGGCCCGAAGCGUGGCGGCACCUGCCGCCGGUGGUAAAAAAGAUCGGAAGAGCACACGUCU

Variants of: B1
Assay: aptazyme ON/OFF ratio, guanine; higher = stronger switching; co-transcriptional cleavage with and without guanine

Going from GGGUCGCCUUAGAAUAAUCGCGUGGAUAUGGCACGCAAGUUUCUACCGGGCACCGUAAAUGUCCGACUGGAGCCGUUCGGGCGGCUAUAAACAGACCUCAGGCCCGAAGCGUGGCGGCACCUGCCGCCGGUGGUAAAAAAGAUCGGAAGAGCACACGUCU to GGGUCGCCUUAGGAUAAUCGCGUGGAUAUGGCACGCAAGUUUCUACCGGGCACCGUAAAUGUCCGACUGGAGCCGUUCGGGCGGCUAUAAACAGACCUCAGGCCCGAAGCGUGGCGGCACCUGCCGCCGGUGGUAAAAAAGAUCGGAAGAGCACACGUCU, the “aptazyme ON/OFF ratio” value rises from 1.07 to 1.16.

Going from GGGUCGCCUUAGUAUAAUCGCGUGGAUAUGGCACGCAAGUUUCUACCGGGCACCGUAAAUGUCCGACUGGAGCCGUUCGGGCGGCUAUAAACAGACCUCAGGCCCGAAGCGUGGCGGCACCUGCCGCCGGUGGUAAAAAAGAUCGGAAGAGCACACGUCU to GGGUCGCCUGGCUAUAAUCGCGUGGAUAUGGCACGCAAGUUUCUACCGGGCACCGUAAAUGUCCGACUGGAGCCGUUCGGGCGGCUAUAAACAGACCUCAGGCCCGAAGCGUGGCGGCACCUGCCGCCGGUGGUAAAAAAGAUCGGAAGAGCACACGUCU, the “aptazyme ON/OFF ratio” value falls from 1.13 to 1.08.

First: GGGUCGCCUGGCAAUAAUCGCGUGGAUAUGGCACGCAAGUUUCUACCGGGCACCGUAAAUGUCCGACUGGAGCCGUUCGGGCGGCUAUAAACAGACCUCAGGCCCGAAGCGUGGCGGCACCUGCCGCCGGUGGUAAAAAAGAUCGGAAGAGCACACGUCU
Second: GGGUCGCCUGGCGAUAAUCGCGUGGAUAUGGCACGCAAGUUUCUACCGGGCACCGUAAAUGUCCGACUGGAGCCGUUCGGGCGGCUAUAAACAGACCUCAGGCCCGAAGCGUGGCGGCACCUGCCGCCGGUGGUAAAAAAGAUCGGAAGAGCACACGUCU
The “aptazyme ON/OFF ratio” value of the first is lower: 1.1 for the first, 1.13 for the second.

Compared with GGGUCGCCUUGCCAUAAUCGCGUGGAUAUGGCACGCAAGUUUCUACCGGGCACCGUAAAUGUCCGACUGGAGCCGUUCGGGCGGCUAUAAACAGACCUCAGGCCCGAAGCGUGGCGGCACCUGCCGCCGGUGGUAAAAAAGAUCGGAAGAGCACACGUCU, GGGUCGCCUUACCAUAAUCGCGUGGAUAUGGCACGCAAGUUUCUACCGGGCACCGUAAAUGUCCGACUGGAGCCGUUCGGGCGGCUAUAAACAGACCUCAGGCCCGAAGCGUGGCGGCACCUGCCGCCGGUGGUAAAAAAGAUCGGAAGAGCACACGUCU is higher in “aptazyme ON/OFF ratio” value: 1.16 for the first, 1.64 for the second.

Going from GGGUCGCCUUCCCAUAAUCGCGUGGAUAUGGCACGCAAGUUUCUACCGGGCACCGUAAAUGUCCGACUGGAGCCGUUCGGGCGGCUAUAAACAGACCUCAGGCCCGAAGCGUGGCGGCACCUGCCGCCGGUGGUAAAAAAGAUCGGAAGAGCACACGUCU to GGGUCGCCUUCUAAUAAUCGCGUGGAUAUGGCACGCAAGUUUCUACCGGGCACCGUAAAUGUCCGACUGGAGCCGUUCGGGCGGCUAUAAACAGACCUCAGGCCCGAAGCGUGGCGGCACCUGCCGCCGGUGGUAAAAAAGAUCGGAAGAGCACACGUCU, the “aptazyme ON/OFF ratio” value falls from 1.1 to 1.03.

First: GGGUCGCCUUCUGAUAAUCGCGUGGAUAUGGCACGCAAGUUUCUACCGGGCACCGUAAAUGUCCGACUGGAGCCGUUCGGGCGGCUAUAAACAGACCUCAGGCCCGAAGCGUGGCGGCACCUGCCGCCGGUGGUAAAAAAGAUCGGAAGAGCACACGUCU
Second: GGGUCGCCUUCUUAUAAUCGCGUGGAUAUGGCACGCAAGUUUCUACCGGGCACCGUAAAUGUCCGACUGGAGCCGUUCGGGCGGCUAUAAACAGACCUCAGGCCCGAAGCGUGGCGGCACCUGCCGCCGGUGGUAAAAAAGAUCGGAAGAGCACACGUCU
The “aptazyme ON/OFF ratio” value of the first is higher: 1.05 for the first, 1.02 for the second.

First: GGGUCGCCUUAAUAUAAUCGCGUGGAUAUGGCACGCAAGUUUCUACCGGGCACCGUAAAUGUCCGACUGGAGCCGUUCGGGCGGCUAUAAACAGACCUCAGGCCCGAAGCGUGGCGGCACCUGCCGCCGGUGGUAAAAAAGAUCGGAAGAGCACACGUCU
Second: GGGUCGCCUUAAGAUAAUCGCGUGGAUAUGGCACGCAAGUUUCUACCGGGCACCGUAAAUGUCCGACUGGAGCCGUUCGGGCGGCUAUAAACAGACCUCAGGCCCGAAGCGUGGCGGCACCUGCCGCCGGUGGUAAAAAAGAUCGGAAGAGCACACGUCU
The “aptazyme ON/OFF ratio” value of the first is higher: 1.28 for the first, 1.1 for the second.

GGGUCGCCUUAAAAUAAUCGCGUGGAUAUGGCACGCAAGUUUCUACCGGGCACCGUAAAUGUCCGACUGGAGCCGUUCGGGCGGCUAUAAACAGACCUCAGGCCCGAAGCGUGGCGGCACCUGCCGCCGGUGGUAAAAAAGAUCGGAAGAGCACACGUCU and GGGUCGCCUUACAAUAAUCGCGUGGAUAUGGCACGCAAGUUUCUACCGGGCACCGUAAAUGUCCGACUGGAGCCGUUCGGGCGGCUAUAAACAGACCUCAGGCCCGAAGCGUGGCGGCACCUGCCGCCGGUGGUAAAAAAGAUCGGAAGAGCACACGUCU are the same in “aptazyme ON/OFF ratio” value: 1.17 for the first, 1.17 for the second.

First: GGGUCGCCUUACUAUAAUCGCGUGGAUAUGGCACGCAAGUUUCUACCGGGCACCGUAAAUGUCCGACUGGAGCCGUUCGGGCGGCUAUAAACAGACCUCAGGCCCGAAGCGUGGCGGCACCUGCCGCCGGUGGUAAAAAAGAUCGGAAGAGCACACGUCU
Second: GGGUCGCCUUACGAUAAUCGCGUGGAUAUGGCACGCAAGUUUCUACCGGGCACCGUAAAUGUCCGACUGGAGCCGUUCGGGCGGCUAUAAACAGACCUCAGGCCCGAAGCGUGGCGGCACCUGCCGCCGGUGGUAAAAAAGAUCGGAAGAGCACACGUCU
The “aptazyme ON/OFF ratio” value of the first is higher: 1.15 for the first, 1.07 for the second.

First: GGGUCGCCUUCUCAUAAUCGCGUGGAUAUGGCACGCAAGUUUCUACCGGGCACCGUAAAUGUCCGACUGGAGCCGUUCGGGCGGCUAUAAACAGACCUCAGGCCCGAAGCGUGGCGGCACCUGCCGCCGGUGGUAAAAAAGAUCGGAAGAGCACACGUCU
Second: GGGUCGCCUUCACAUAAUCGCGUGGAUAUGGCACGCAAGUUUCUACCGGGCACCGUAAAUGUCCGACUGGAGCCGUUCGGGCGGCUAUAAACAGACCUCAGGCCCGAAGCGUGGCGGCACCUGCCGCCGGUGGUAAAAAAGAUCGGAAGAGCACACGUCU
The “aptazyme ON/OFF ratio” value of the first is lower: 1.04 for the first, 1.17 for the second.

First: GGGUCGCCUUCGCAUAAUCGCGUGGAUAUGGCACGCAAGUUUCUACCGGGCACCGUAAAUGUCCGACUGGAGCCGUUCGGGCGGCUAUAAACAGACCUCAGGCCCGAAGCGUGGCGGCACCUGCCGCCGGUGGUAAAAAAGAUCGGAAGAGCACACGUCU
Second: GGGUCGCCUUAUAAUAAUCGCGUGGAUAUGGCACGCAAGUUUCUACCGGGCACCGUAAAUGUCCGACUGGAGCCGUUCGGGCGGCUAUAAACAGACCUCAGGCCCGAAGCGUGGCGGCACCUGCCGCCGGUGGUAAAAAAGAUCGGAAGAGCACACGUCU
The “aptazyme ON/OFF ratio” value of the first is higher: 1.22 for the first, 1.18 for the second.

Going from GGGUCGCCUUAUUAUAAUCGCGUGGAUAUGGCACGCAAGUUUCUACCGGGCACCGUAAAUGUCCGACUGGAGCCGUUCGGGCGGCUAUAAACAGACCUCAGGCCCGAAGCGUGGCGGCACCUGCCGCCGGUGGUAAAAAAGAUCGGAAGAGCACACGUCU to GGGUCGCCUUAUGAUAAUCGCGUGGAUAUGGCACGCAAGUUUCUACCGGGCACCGUAAAUGUCCGACUGGAGCCGUUCGGGCGGCUAUAAACAGACCUCAGGCCCGAAGCGUGGCGGCACCUGCCGCCGGUGGUAAAAAAGAUCGGAAGAGCACACGUCU, the “aptazyme ON/OFF ratio” value falls from 1.2 to 1.12.

GGGUCGCCUUCGGAUAAUCGCGUGGAUAUGGCACGCAAGUUUCUACCGGGCACCGUAAAUGUCCGACUGGAGCCGUUCGGGCGGCUAUAAACAGACCUCAGGCCCGAAGCGUGGCGGCACCUGCCGCCGGUGGUAAAAAAGAUCGGAAGAGCACACGUCU and GGGUCGCCUUCGAAUAAUCGCGUGGAUAUGGCACGCAAGUUUCUACCGGGCACCGUAAAUGUCCGACUGGAGCCGUUCGGGCGGCUAUAAACAGACCUCAGGCCCGAAGCGUGGCGGCACCUGCCGCCGGUGGUAAAAAAGAUCGGAAGAGCACACGUCU are the same in “aptazyme ON/OFF ratio” value: 1.12 for the first, 1.12 for the second.

Going from GGGUCGCCUUCGUAUAAUCGCGUGGAUAUGGCACGCAAGUUUCUACCGGGCACCGUAAAUGUCCGACUGGAGCCGUUCGGGCGGCUAUAAACAGACCUCAGGCCCGAAGCGUGGCGGCACCUGCCGCCGGUGGUAAAAAAGAUCGGAAGAGCACACGUCU to GGGUCGCCUUCCGAUAAUCGCGUGGAUAUGGCACGCAAGUUUCUACCGGGCACCGUAAAUGUCCGACUGGAGCCGUUCGGGCGGCUAUAAACAGACCUCAGGCCCGAAGCGUGGCGGCACCUGCCGCCGGUGGUAAAAAAGAUCGGAAGAGCACACGUCU, the “aptazyme ON/OFF ratio” value falls from 1.08 to 1.02.

GGGUCGCCUUCCAAUAAUCGCGUGGAUAUGGCACGCAAGUUUCUACCGGGCACCGUAAAUGUCCGACUGGAGCCGUUCGGGCGGCUAUAAACAGACCUCAGGCCCGAAGCGUGGCGGCACCUGCCGCCGGUGGUAAAAAAGAUCGGAAGAGCACACGUCU and GGGUCGCCUUCCUAUAAUCGCGUGGAUAUGGCACGCAAGUUUCUACCGGGCACCGUAAAUGUCCGACUGGAGCCGUUCGGGCGGCUAUAAACAGACCUCAGGCCCGAAGCGUGGCGGCACCUGCCGCCGGUGGUAAAAAAGAUCGGAAGAGCACACGUCU are the same in “aptazyme ON/OFF ratio” value: 1.02 for the first, 1.02 for the second.

Compared with GGGUCGCCUUAGCAUAAUCGCGUGGAUAUGGCACGCAAGUUUCUACCGGGCACCGUAAAUGUCCGACUGGAGCCGUUCGGGCGGCUAUAAACAGACCUCAGGCCCGAAGCGUGGCGGCACCUGCCGCCGGUGGUAAAAAAGAUCGGAAGAGCACACGUCU, GGGUCGCCUUAACAUAAUCGCGUGGAUAUGGCACGCAAGUUUCUACCGGGCACCGUAAAUGUCCGACUGGAGCCGUUCGGGCGGCUAUAAACAGACCUCAGGCCCGAAGCGUGGCGGCACCUGCCGCCGGUGGUAAAAAAGAUCGGAAGAGCACACGUCU is higher in “aptazyme ON/OFF ratio” value: 1.18 for the first, 1.21 for the second.

Going from GGGUCGCCUUAUCAUAAUCGCGUGGAUAUGGCACGCAAGUUUCUACCGGGCACCGUAAAUGUCCGACUGGAGCCGUUCGGGCGGCUAUAAACAGACCUCAGGCCCGAAGCGUGGCGGCACCUGCCGCCGGUGGUAAAAAAGAUCGGAAGAGCACACGUCU to GGGUCGCCUUCAAAUAAUCGCGUGGAUAUGGCACGCAAGUUUCUACCGGGCACCGUAAAUGUCCGACUGGAGCCGUUCGGGCGGCUAUAAACAGACCUCAGGCCCGAAGCGUGGCGGCACCUGCCGCCGGUGGUAAAAAAGAUCGGAAGAGCACACGUCU, the “aptazyme ON/OFF ratio” value falls from 1.25 to 1.06.

Compared with GGGUCGCCUUCAGAUAAUCGCGUGGAUAUGGCACGCAAGUUUCUACCGGGCACCGUAAAUGUCCGACUGGAGCCGUUCGGGCGGCUAUAAACAGACCUCAGGCCCGAAGCGUGGCGGCACCUGCCGCCGGUGGUAAAAAAGAUCGGAAGAGCACACGUCU, GGGUCGCCUUCAUAUAAUCGCGUGGAUAUGGCACGCAAGUUUCUACCGGGCACCGUAAAUGUCCGACUGGAGCCGUUCGGGCGGCUAUAAACAGACCUCAGGCCCGAAGCGUGGCGGCACCUGCCGCCGGUGGUAAAAAAGAUCGGAAGAGCACACGUCU is higher in “aptazyme ON/OFF ratio” value: 1.04 for the first, 1.14 for the second.
